Target: the molecule itself
Experiment: AUC; sedimentation velocity, 48000 rpm, protein in PBS pH 7; c(s) distributions with SEDFIT; dimer to monomers

B1: human FHR-1 (natural protein, UniProt Q03591 19-330, looked up)
chain: EATFCDFPKINHGILYDEEKYKPFSQVPTGEVFYYSCEYNFVSPSKSFWTRITCTEEGWSPTPKCLRLCFFPFVENGHSESSGQTHLEGDTVQIICNTGYRLQNNENNISCVERGWSTPPKCRSTDTSCVNPPTVQNAHILSRQMSKYPSGERVRYECRSPYEMFGDEEVMCLNGNWTEPPQCKDSTGKCGPPPPIDNGDITSFPLSVYAPASSVEYQCQNLYQLEGNKRITCRNGQWSEPPKCLHPCVISREIMENYNIALRWTAKQKLYLRTGESAEFVCKRGYRLSSRSHTLRTTCWDGKLEYPTCAKR
notes: human factor H-related protein 1 (FHR-1); also called hFHR-1
  stoichiometry N: 2

Source: publication PMC11813886, “Functional and structural characterization of mouse Factor H-related B protein unveils a novel dimerization domain shared by FHR-B and FH” (Frontiers in Immunology, 2025)
